The record followed here is US20120093805A1.

One may read the EC50 (read off the curve) as the midpoint of the concentration-response curve. Read a low EC50 (read off the curve) as a more potent agent.

Assay [1] has as its target cynomolgus CD27 (C-terminal His tag) with normal O-linked sugar chains expressed on CHO/DG44 cells (cynomolgus). In words: flow cytometry (FCM) on cynomolgus CD27/DG44 cells; number printed beside the broken bar. For orientation: A flow cytometer gives signals particle by particle.
In assay [2] the target is human sugar chain-deficient CD27 expressed on Lec8 cells (human) (UniProt P26842). In words: flow cytometry (FCM) on CD27/Lec8-4 cells [A) (b].
The target in assay [3] is human CD27 with normal O-linked sugar chains expressed on CHO/DG44 cells (human) (UniProt P26842). Description: flow cytometry (FCM) on CD27/DG44-4 cells [B) (b].
human CD27 with normal O-linked sugar chains expressed on CHO/DG44 cells (human), sequence (P26842 20-260 H233R limits assumed): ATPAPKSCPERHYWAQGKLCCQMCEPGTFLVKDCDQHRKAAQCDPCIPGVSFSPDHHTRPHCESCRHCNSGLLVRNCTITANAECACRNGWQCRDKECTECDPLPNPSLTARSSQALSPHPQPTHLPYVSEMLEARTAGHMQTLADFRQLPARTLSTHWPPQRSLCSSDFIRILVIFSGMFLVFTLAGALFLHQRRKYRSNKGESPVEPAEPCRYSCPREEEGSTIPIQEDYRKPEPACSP

human sugar chain-deficient CD27 expressed on Lec8 cells (human), sequence (P26842 20-260 H233R limits assumed): as above

Anti-CD27 Antibody (O323) came in with a Mean Fluorescence Intensity in assay [1] of 133. Also, the EC50 (read off the curve) in assay [2] and in assay [3] was 0.1 µg/mL throughout.
